Assay [1] concerns the target T1, Decoy c-Met (extracellular domain of human c-Met) (human, Glycoprotein. In cells it is cleaved by furin after residue 307 into disulfide-linked alpha and beta parts; written here as one chain.).
T1 construct: construct after Basilico et al. 2008; also called Decoy Met; monomeric Decoy Met
T1 chain: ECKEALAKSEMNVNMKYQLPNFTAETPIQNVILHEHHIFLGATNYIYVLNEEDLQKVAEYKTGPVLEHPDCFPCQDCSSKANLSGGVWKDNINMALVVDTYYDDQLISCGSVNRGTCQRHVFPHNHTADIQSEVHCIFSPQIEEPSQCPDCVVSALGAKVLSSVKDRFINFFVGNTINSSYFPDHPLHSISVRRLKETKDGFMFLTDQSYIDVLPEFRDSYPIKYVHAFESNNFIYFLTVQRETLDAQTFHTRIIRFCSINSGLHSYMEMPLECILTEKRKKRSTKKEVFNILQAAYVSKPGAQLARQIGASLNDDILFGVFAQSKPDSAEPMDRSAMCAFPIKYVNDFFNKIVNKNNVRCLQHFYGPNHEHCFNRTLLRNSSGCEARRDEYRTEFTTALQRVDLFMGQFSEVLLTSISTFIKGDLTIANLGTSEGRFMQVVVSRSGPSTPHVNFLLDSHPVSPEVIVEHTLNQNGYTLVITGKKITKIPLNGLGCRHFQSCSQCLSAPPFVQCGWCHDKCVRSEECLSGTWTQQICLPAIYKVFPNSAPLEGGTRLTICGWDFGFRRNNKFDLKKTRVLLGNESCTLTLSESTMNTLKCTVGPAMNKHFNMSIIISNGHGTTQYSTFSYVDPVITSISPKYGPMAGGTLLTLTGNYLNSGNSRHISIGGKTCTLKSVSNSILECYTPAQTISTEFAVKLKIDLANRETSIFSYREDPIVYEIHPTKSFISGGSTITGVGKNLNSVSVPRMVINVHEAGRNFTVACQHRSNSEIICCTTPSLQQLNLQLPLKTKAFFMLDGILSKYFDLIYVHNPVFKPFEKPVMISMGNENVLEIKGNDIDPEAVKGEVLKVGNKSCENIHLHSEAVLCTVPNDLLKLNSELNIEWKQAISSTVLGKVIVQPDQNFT
As to the kind of experiment: binding ELISA, human c-Met (Decoy). A general note: ELISA stands for enzyme-linked immunosorbent assay.

The target in assay [2] is human c-Met on cells (MKN-45, A549, HPAF, BxPC3) (human, UniProt P08581 25-1390). As to the kind of experiment: cell-based or functional assay.
The target in assay [3] is T2, llama-human c-Met chimera LS4 (aa1-348) (Llama glama; human).
T2 construct: as LS1
As to the kind of experiment: ELISA, mAb coated at 2 µg/ml, chimera added, streptavidin-HRP. From the text: (§1) An ELISA was run to investigate the binding of the mAbs to the different chimeras.

Assay [4] concerns the target T3, llama-human c-Met chimera L19 (aa572-909) (human; Llama glama).
T3 construct: label probably LI9
The assay is described as above.
Source text: as §1

Assay [5] has as its target T4, llama-human c-Met chimera L18 (aa540-909) (human; Llama glama).
T4 construct: label probably LI8
The description is as above.
Source text: as §1

The target of assay [6] is T5, llama-human c-Met chimera LS5 (aa1-448) (Llama glama; human).
T5 construct: as LS1
The description is as above.
Source text: as §1

The target of assay [7] is T6, llama-human c-Met chimera L110 (aa608-909) (human; Llama glama).
T6 construct: label probably LI10
The description is as above.
Source text: as §1

Assay [8] deals with llama-human c-Met chimera LS1 (aa1-98) (Llama glama; human). Described as above.
Source text: as §1

The target of assay [9] is T7, llama-human c-Met chimera LS2 (aa1-199) (Llama glama; human).
T7 construct: as LS1
The assay is described as above.
Source text: as §1

Assay [10] concerns the target T8, llama-human c-Met chimera LS3 (aa1-287) (Llama glama; human).
T8 construct: as LS1
Described as above.
Source text: as §1

Assay [11] has as its target T9, llama-human c-Met chimera L111 (aa634-909) (human; Llama glama).
T9 construct: label probably LI11
The assay is described as above.
Source text: as §1

The target of assay [12] is T10, recombinant dimeric c-Met (R&D systems, 358-MT/CF) (human, UniProt P08581 25-932).
T10 construct: bought protein; also called recombinant c-Met; Fc-Met; not shown: C-terminal Fc portion (captured with anti-human Fc) and a His tag (captured with anti-His)
As to the kind of experiment: competition ELISA: recombinant dimeric c-Met captured on the plate, mAb dilutions, then 25 ng/ml N-terminally biotinylated HGF as competitor, strep-HRP, 620 nm; % competition against the controls. The procedure:
Competition with N-terminally biotinylated HGF for binding to immobilized c-Met was performed using an ELISA-based competition assay. Five μg/ml mouse anti-His antibodies (Serotech) was immobilized on a maxisorb plate and, after blocking with 1% casein in PBS for 2 h, 100 ng/ml recombinant dimeric c-Met was added and incubated for 1 h at room temperature. After washing, dilutions of the antibodies were added and allowed to bind to the captured c-Met for 30 minutes, before 25 ng/ml N-terminally biotinylated HGF (R&D systems, 294-HGN/CF) was added. Biotinylated HGF was incubated at room temperature for 1 h before washing. Horseradish-conjugated streptavidin (strep-HRP) was added and incubated for an additional hour. TMB was added and the plate read at 620 nm. An isotype control (hIgG1λ) was included as a control as well as murine 5D5 antibody. Competition was expressed as percentage competition as compared to the controls (strep-HRP only or hIgG1λ) and plotted against the concentration of antibodies. An IC₅₀ was calculated using GraphPad Prism (Table 10). Antibodies 13E6 and 20A11 only displaced HGF partially (about 50%), which may be related to the epitope these two mAbs recognize on the c-Met.

A word on the EC50: it is the concentration needed to bring the measured effect to its halfway point.

B1: 20A11 mAb (antibody, human IgG1, V domains shown)
VH: QVQLVESGGGLVQPGGSLRLSCAASGFTFDDYAMSWVRQAPGKGLEWVSAISWNGSSTYYAESMKGRFTISRDNAKNTLYLQMNSLKSEDTAVYYCAKDLIGSHDYWGQGTQVTVSS
VL: QAVLTQPPSVSGTLGKTLTISCAGTSSDVGYGNYVSWYQQLPGTAPKLLIYAVSTRASGIPDRFSGSKSGNTASLTISGLQSEDEADYYCASYRSSNNYAFGAGTKLTVL
notes: human IgG1 constant domains and human C lambda
In assay [1], B1 displayed a 50% effective concentration (EC50) of 4.3 nM.

B2: 38H10 mAb (antibody, human IgG1, V domains shown)
VH: EVQLVQPGVELRNPGASVKVSCKASGYIFTMNSIDWVRQAPGQGLEWMGRIDPEDGGTKYAQKFQGRVTFTADTSTSTAYVELNSLRSEDTAVYYCARVDDYYLGYDYWGQGTQVTVSS
VL: EIVMTQSPSSVTASAGEKVTINCKSSQSVLWRSNQKNYLAWYQQRLGQSPRLLISWASIRESGVPDRFSGSGSTTDFTLTISSFQPEDAAVYYCQQGYSFPYTFGSGTRLEIK
notes: human IgG1 constant domains and human C kappa
In the case of B2, in assay [2], the “antibody-induced proliferation of BxPC3 cells (agonism)” value was < 20 % of the proliferation obtained with 75 ng/ml HGF. In assay [1], the EC50 amounted to 0.19 nM.

B3: 48A2 mAb (antibody, human IgG1, V domains shown)
VH: EVQLVQPGVELRNPGASVKVSCKASGYIFTMNSIDWVRQAPGQGLEWMGRIDPEDGGTKYAQKFQGRVTFTADTSTSTAYVELNSLRSEDTAVYYCARVDDYYLGYDYWGQGTQVTVSS
VL: DIVMTQTPTSVTASAGDKVTINCKSSQSVLFSSNQKNYLAWYQQRLGQSPRLLIYWASIRESGVPDRFSGSGSATDFTLTISNFQPEDAAVYYCQQGYSFPYSFGSGTRLEIR
notes: VL-shuffled variant of 38H10; human IgG1 and C kappa
As to B3, the 50% effective concentration (EC50) in assay [3] was 0.07 µg/mL; in assay [4] it was more than 0.04 µg/mL; in [5] it was more than 0.04 µg/mL; in [6] it was 0.05 µg/mL; in [7], more than 0.04 µg/mL; in assay [8], 0.031 µg/mL. Moreover, the results for the half-maximal effective concentration (EC50) in [9], in [10] and in assay [11] were 0.034 µg/mL, 0.05 µg/mL and 0.042 µg/mL, respectively.

B4: 40B8 mAb (antibody, human IgG1, V domains shown)
VH: EVQLVQPGAELRNPGASVKVSCKASGYTFTNYVIDWVRQAPGQGLEWMGRIDPENGGTRYAQKFQGRVTFTADTSTSTAYVELSNLRSEDTAVYYCARLEDYELAYDYWGQGTQVTVSS
VL: DIVMTQTPSSVTASAGEKVTINCKSSQSVLLSSNQKNYLAWYQQRLGQSPRLLIYWASTRESGVPDRFSGSGSTTDFTLTISSFQPEDAAVYYCQQGVSFPLTFGQGTKVELK
notes: as for B2
Regarding B4, the “antibody-induced proliferation of BxPC3 cells (agonism)” value in [2] is < 20 % of the proliferation obtained with 75 ng/ml HGF. The molecule further gave an EC50 in assay [1] of 0.14 nM. The “IC50 (read off the curve)” value in [12] was approximately 0.07 nM.

(Values after US20170349667A1 (ARGEN X B V, published 2017).)
